The supplement of paper PMC9170038

What was measured:
MS2 coat protein [1] = assay: apparent KD of MS2 coat protein, switch OFF state (with FMN for OFF switches, without FMN for ON switches); designed switch direction (-1 OFF switch, 1 ON switch): -1; higher = weaker reporter binding; details: FMN input: 0 or 200 uM; Eterna round: R93 (includes R88 designs)
How it was run: (§1)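 Normalised binding curves from single clusters were fitted, and the median fit for each design is given as apparent KD. The clusters held designed RNA switches transcribed on-chip from Illumina sequencing clusters. These were titrated with SNAP-549-labelled MS2 coat protein (twofold steps from 0.7 or 1.5 nM to 3 µM, 0.8–1.5 h to 10–20 min per step) in 100 mM Tris-HCl pH 7.5, 80 mM KCl, 4 mM MgCl2, without or with constant ligand.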

MS2 coat protein [2] = assay: apparent KD of MS2 coat protein, switch ON state; designed switch direction (-1 OFF switch, 1 ON switch): -1; higher = weaker reporter binding; details: FMN input: 0 or 200 uM; Eterna round: R93 (includes R88 designs)
How it was run: as §1

Sequence | apparent KD of MS2 coat protein (MS2 coat protein [1]) | apparent KD of MS2 coat protein (MS2 coat protein [2])
UAUAGACAUGAGGAUCACCCAUGUGAGGAUAUGAGUGACUACAGGACAUCACGUACAAUCAGAAGGCACAGAAA [JR_Exc001_Sub016] | 60.9 nM | 47.9 nM
AACACACAUGAGGAUCACCCAUGUCAGGAUAUGCCGGGUUAGAGCCAACUGAAAAACCGUAGAAGGGACGAAAA [Bilbo Confounded 9 - Jieux - Exclusion 1] | 61.6 nM | 66.9 nM
AGUGAGUGAGGAUAUGAGUGAACAACAAAACAAAUAACGACUCAGAAGGCACAUGAGGAUCACCCAUGUACACA [May 68] | 22.3 nM | 24 nM
GGUUUGGUAGGAUAUACAUGAGGAUCACCCAUGUGAGAGAAAAAAGUGAGAAAGAAAAGUAGAAGGACCGGACG [salish99-ex3-123] | 102 nM | 39.9 nM
AACAAGUGAGGAUAUUGGAAAAGUAAAUAAGUAAAACAAAACAAGAAGGCACAUGAGGAUCACCCAUGUAAAUA [JR_Exc004_Sub017] | 17.9 nM | 21.9 nM
ACCAAUGGAGGAUAUACAUGAGGAUCACCCAUGUUUAUCCUACAUAGGUGAAAAACAUGUAGAAGGCCAUAGGA [EX3 237: Super Stable 37] | 12 nM | 11.1 nM
GAGAAGUGAGGAUAUCGAAGACAGACGAAAAGUCUGUCAAACGAGAAGGCACAUGAGGAUCACCCAUGUGGGAA [Mat - Exaclusion 4 - Eli mod - D76] | 140 nM | 75.8 nM
AAAGUACGAGGAUAUACAUAGAUACAGAUACAUGUAGACGUACAUGAGGAUCACCCAUGUAGAAGGCGUACAAG [Mat - Same state - Mayanna Mod - D116] | 327 nM | 172 nM
AGAAAGUCAGGAUAUACAGAAAAAAAAACGAAAAAAAAUCUGUAGAAGGGACAUGAGGAUCACCCAUGUAAAGA [Mat - Exclusion 4 - Mayanna - D124] | 36.8 nM | 66.1 nM
AGUUAGUCAGGAUAUGCGUGAAGAAUAAAAGAAAUAACAACGCAGAAGGGACAUGAGGAUCACCCAUGUAAACA [May 55] | 37.3 nM | 34.2 nM
AAAAAACAUGAGGAUCACCCAUGUGAGGAUAUCCUGAAUGAAAUAAAAUAUCUCGAAAGGAGAAGGCGCAAAAA [Ex 1 May 33] | 49.9 nM | 67.7 nM
AUAGGGCUAGGAUAUACAUGAGGAUCACCCAUGUAAACAGAUAGAUCAAGGUAAACGAGUAGAAGGAGCAAUAA [JR_Exc003_Sub210] | 18.8 nM | 19.5 nM
GUCAGCUGAGGAUAUACAGGUGAUGCCGCAGAACAAAAUAUACAUGAGGAUCACCCAUGUAGAAGGCGGAAGAC [Terian] | 44.1 nM | 49.4 nM
AAAAAACAUGAGGAUCACCCAUGUCAGGAUAUCCGAAAAAAAAAAAAAAAAAGGCCUUGGAGAAGGGACAUUCC [Chica Displaced 7- Jieux - Exclusion 1] | 57.5 nM | 53.7 nM
AACAGUACAGGAUAUACAUGAGGAUCACCCAUGUGAAAAUUAAGUGGCGUACCACAAGGUAGAAGGGUACUGGA [Moding Maslow Revisited (73) 27] | 129 nM | 32.7 nM
GAAGAACAUGAGGAUCACCCAUGUCAGGAUAUACAGAAGGGAAUAAAAUAACCUGAAAGUAGAAGGGACAAGAA [Ex 1 May 42] | 57.2 nM | 29 nM
AGUUGGCGAGGAUAUACAUGAGGAUCACCCAUGUGAGAGAUAAAAGUGAGAAAGAAAAGUAGAAGGCGCUAACA [JL Lego Mod 20] | 262 nM | 45.6 nM
